Data from the supplement of paper PMC10567573.

B1: TMEM192 (parent)
chain: LWILHLLLECYIQYHHSKIRNRGY

Variants of: B1
Test: protein stability index of a GFP-peptide fusion (GPS, HEK-293T) (PSI 1-6); higher = more stable
Conditions: c terminus: a fixed tail appended
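Note: lentivirally expressed fusions sorted by FACS into six bins by GFP to DsRed ratio, PSI derived from sequencing read proportions per bin multiplied by bin number.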

Protein stability index of substitutions, site by site:
L4: A 4.26 | M 2.39 | I 2.29 | F 1.69 | V 1.83 | Y 2.68 | P 2.85 | S 3.7 | H 3.85 | C 2.96 | K 2.51 | R 3.42 | T 1.17
L7: V 3.56 | Y 2.48 | E 2.73 | A 3.25 | M 2.51 | N 2 | C 2.32 | I 3.46 | T 3.78 | R 1.89 | H 2.78 | D 3.52 | P 2.33 | Q 2.34 | F 1.88
E9: V 3.35 | D 1.94 | F 3.6 | W 3.27 | G 2 | C 3.27 | I 2.56 | N 1.44 | R 2.99 | H 1.47 | S 2.28 | L 1.7 | K 3.05 | M 2.33 | T 1.96 | P 3.73 | Q 2.48
L6: N 1.97 | S 1.62 | P 1.97 | E 2.09 | T 2.81 | Q 1.99 | G 1.69 | Y 1.8 | I 1.65 | M 1.65 | D 1.87 | K 2 | H 2.37 | C 1.67 | A 2.43 | R 1.73
H16: D 1.47 | Q 2.43 | K 1.64 | E 1.91 | S 1.05 | R 1.5 | N 1.3 | F 2.36 | G 2.53 | C 2.41 | L 1.85 | V 2.54 | P 2.29 | I 3.68 | W 2.85
Y14: H 2.31 | W 1.1 | G 1.41 | N 1.53 | C 2.16 | S 2.47 | R 2.11 | T 2.49 | V 2.53 | E 2.18 | F 2.96 | D 2.21 | L 3.2 | A 3.1 | I 1.79 | Q 2 | K 2.01 | P 2.67
W2: A 2.2 | T 1.86 | P 1.23 | V 3.84 | Q 2.66 | G 2.73 | F 3.58 | Y 1.25 | S 1.58 | M 2.41 | R 1.63 | K 1.94 | N 2.28 | E 1.73 | H 2.14 | D 1.88
Q13: G 1.39 | M 2.08 | A 3.94 | Y 1.85 | F 2.88 | D 2.32 | C 2.06 | N 3.19 | R 2.9 | E 1.8 | P 3 | T 1.75 | S 1.9 | I 2.75 | K 2.05 | H 2.98 | L 2
S17: W 2.15 | Y 4.45 | H 2.86 | C 2.7 | D 2.04 | V 1.59 | A 2.68 | N 2.6 | G 2.28 | M 1.11 | R 3.51 | Q 2.37 | P 2.26 | I 2.57 | T 2.08
H5: I 2.77 | D 1.05 | K 2.35 | C 1.66 | T 2.61 | V 2.22 | G 1.48 | Q 1.72 | E 2.26 | P 3.17 | L 2.28
I19: S 1.78 | W 1.88 | D 1.73 | G 2.44 | V 2.01 | L 2.14 | F 3.16 | R 1.96 | A 2.33 | H 1.43 | Q 1.55 | P 2.04 | N 1.88 | K 1.31 | T 1.94
C10: Q 1.95 | Y 2.2 | L 4.54 | D 2.63 | P 2.22 | H 1.98 | N 1.79 | F 2.53 | K 1.72 | G 1.18 | A 2.09 | W 1.4 | R 2.03 | E 1.94 | S 1.72
I12: L 2.53 | H 1.95 | F 3.41 | E 1.88 | M 1.82 | D 1.5 | N 2.13 | G 1.07 | K 2.21 | W 1.79 | R 2.8 | C 1.69 | T 2.58 | V 2.27 | Q 1.62 | S 1.94
G23: V 3.73 | N 1.79 | F 1.38 | Y 1.89 | C 2.04 | K 2.54 | M 1.87 | A 2.48 | P 3.17 | Q 2.51 | W 1.77 | T 2.78 | R 1.78 | I 2.99
I3: A 1.76 | Q 1.37 | K 2.31 | C 2.62 | H 2.09 | W 1.61 | L 3.4 | T 2.34 | V 2.65 | Y 1.62 | R 1.74 | D 1.71 | N 2.2 | G 1.37 | S 2.32 | M 1.35 | E 1.68
K18: M 3.16 | G 2.69 | P 2.32 | S 3.8 | Q 2.67 | D 3.53 | T 2.76 | E 2.77 | R 4.17 | N 3.08 | H 4.09 | F 2.88
Y24: G 3.91 | K 1.31 | C 1.79 | A 2.18 | M 2.28 | H 1.62 | N 2.44 | I 2.54
R22: V 1.17 | I 2.69 | C 4.22 | N 2.26 | A 2.18 | F 2.93 | Y 1.98 | W 3.32 | S 2.66 | K 1.46 | Q 3.54 | D 3.49 | L 2.44 | P 1.67
Y11: I 2.47 | D 1.25 | T 2.21 | E 3.19 | A 2.47 | N 3.81 | M 2.48 | S 3.45 | K 1.93 | F 3.94 | H 1.77 | Q 2.06 | G 3.4
N21: L 2.11 | H 2.53 | I 2.45 | G 2.35 | K 1.98 | W 2.74 | R 3.57 | A 2.86 | F 1.97 | Y 2.6 | P 2.81 | V 2.93 | S 2.7
H15: Y 2.86 | V 2.15 | R 2.33 | G 2.37 | P 2.18 | N 2.7 | D 1.56 | S 2.72 | M 2.41 | C 2.19 | Q 2.24 | L 2.14 | T 1.25
L1: T 3.75 | V 2.17 | Q 3.9 | Y 2.72
L8: D 4.78 | H 3.75 | Y 2.71 | K 2.54 | M 2.01 | I 3.28 | T 2.86 | W 2.98 | S 4.08 | F 2.57 | P 2.11 | R 2.96
R20: S 2.63 | D 2.8 | M 3.17 | G 2.05 | W 2.45 | Q 1.87 | N 2.26 | P 3.47 | A 3.18 | I 3.52 | T 2.38 | L 1.89 | Y 2.69 | H 2.63 | K 1.97
